# In publication PMC4383860, “Crystal structure of human persulfide dioxygenase: structural basis of ethylmalonic encephalopathy” (Human Molecular Genetics, 2015):
# How the values were obtained:
# [1] = biological target: the molecule itself; assay: native MS + SEC-MALS; dimer to monomer ratio told for both methods together; self-association, dimer
# [2] = biological target: the molecule itself; assay: native MS; non-denaturing electrospray soft-ionization MS; 15 µM hETHE1 in 15 mM ammonium acetate buffer (pH 7.5); cone voltage 80 V; self-association, dimer
# [3] = biological target: the molecule itself; assay: SEC-MALS; printed as MALS (multi-angle laser light scattering) of hETHE1 after purification, two peaks; self-association
protein,measurement,setting,value
"human ethylmalonic encephalopathy protein 1 (hETHE1), lacking its 20 residue N-terminal mitochondrial targeting sequence (enzyme, UniProt O95571 21-254, looked up, Cys247 refined as cysteinyl sulfinic acid (CSD247) in the crystal; +30 Da seen only in the dimer by non-denaturing mass spectrometry, the start at residue 21 is worked out from that statement; Printed masses: monomer 26 116 Da, dimer 52 232 Da; also called human persulfide dioxygenase; sulphur dioxygenase; not shown: His6, N-terminal, cleaved) APILLRQMFEPVSCTFTYLLGDRESREAVLIDPVLETAPRDAQLIKELGLRLLYAVNTHCHADHITGSGLLRSLLPGCQSVISRLSGAQADLHIEDGDSIRFGRFALETRASPGHTPGCVTFVLNDHSMAFTGDALLIRGCGRTDFQQGCAKTLYHSVHEKIFTLPGDCLIYPAHDYHGFTVSTVEEERTLNPRLTLSCEEFVKIMGNLNLPKPQQIDFAVPANMRCGVQTPTA",dimer to monomer ratio,[1],~10
same,stoichiometry N,[2],2
same,stoichiometry N,[3],4
